{
  "source": "patent US20210032664",
  "about": "“ENGINEERED MEGANUCLEASES WITH RECOGNITION SEQUENCES FOUND IN THE HUMAN BETA-2 MICROGLOBULIN GENE” (Precision Biosciences, Inc., published 2021)",
  "binders": {"B1": {"name": "B2M 13-14 recognition sequence (dsDNA)", "DNA 1": "CTATCTCTTGTACTACACTGAA", "DNA 2": "TTCAGTGTAGTACAAGAGATAG"}},
  "assay_in_all_cases": "cell_activity; human T cells, 1 ug mRNA, day 3",
  "conditions_in_all_cases": "tags: N-terminal SV40 NLS",
  "key": {"B2M 13-14x.281": {"molecular_target": "T1, B2M 13-14x.281 (Artificial Sequence)", "T1 chain": "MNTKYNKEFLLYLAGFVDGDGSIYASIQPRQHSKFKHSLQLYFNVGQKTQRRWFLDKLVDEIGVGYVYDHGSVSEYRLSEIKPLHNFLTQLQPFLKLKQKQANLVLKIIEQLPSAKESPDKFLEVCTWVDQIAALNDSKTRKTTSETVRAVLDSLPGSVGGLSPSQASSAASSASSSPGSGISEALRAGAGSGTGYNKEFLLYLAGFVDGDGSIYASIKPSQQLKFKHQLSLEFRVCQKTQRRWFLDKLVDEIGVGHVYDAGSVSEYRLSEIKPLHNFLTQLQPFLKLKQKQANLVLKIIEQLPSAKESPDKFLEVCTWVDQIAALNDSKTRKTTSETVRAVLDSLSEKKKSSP", "procedure": "(§1) Donor human T cells were stimulated with anti-CD3 and anti-CD28 antibodies for 3 days, then electroporated with mRNA encoding a given B2M 13-14 meganuclease (1 μg) using the Amaxa 4D-Nucleofector (Lonza) according to the manufacturer's instructions. To look for the loss of B2M surface expression, cells were stained with an antibody recognizing β-2 microglobulin (BD Biosciences) as well as an antibody recognizing CD3 (BioLegend), a marker of T cells."}, "B2M 13-14x.377": {"molecular_target": "T2, B2M 13-14x.377 (Artificial Sequence)", "T2 chain": "T1 chain with H32A, S33A, S38T, S217V, S221N, Q223A, Q229T, C237S, A261F", "procedure": "as §1"}, "B2M 13-14x.465": {"molecular_target": "T3, B2M 13-14x.465 (Artificial Sequence)", "T3 chain": "T1 chain with H32A, S33A, S38T, S221G, Q223C, Q229A, S231Y, C237T, A261T, E266D", "procedure": "as §1"}, "B2M 13-14x.371": {"molecular_target": "T4, B2M 13-14x.371 (Artificial Sequence)", "T4 chain": "T1 chain with S217M, S221G, Q223S, Q229Y, C237V, E266Y", "procedure": "as §1"}, "B2M 13-14x.317": {"molecular_target": "T5, B2M 13-14x.317 (Artificial Sequence)", "T5 chain": "T1 chain with S221Y, Q223T, Q229Y, S231F, C237Y, A261T", "procedure": "as §1"}, "B2M 13-14x.456": {"molecular_target": "T6, B2M 13-14x.456 (Artificial Sequence)", "T6 chain": "T1 chain with H32A, S33A, S38T, S217V, S221Q, Q223H, S231F, C237S, A261S", "procedure": "as §1"}, "B2M 13-14x.457": {"molecular_target": "T7, B2M 13-14x.457 (Artificial Sequence)", "T7 chain": "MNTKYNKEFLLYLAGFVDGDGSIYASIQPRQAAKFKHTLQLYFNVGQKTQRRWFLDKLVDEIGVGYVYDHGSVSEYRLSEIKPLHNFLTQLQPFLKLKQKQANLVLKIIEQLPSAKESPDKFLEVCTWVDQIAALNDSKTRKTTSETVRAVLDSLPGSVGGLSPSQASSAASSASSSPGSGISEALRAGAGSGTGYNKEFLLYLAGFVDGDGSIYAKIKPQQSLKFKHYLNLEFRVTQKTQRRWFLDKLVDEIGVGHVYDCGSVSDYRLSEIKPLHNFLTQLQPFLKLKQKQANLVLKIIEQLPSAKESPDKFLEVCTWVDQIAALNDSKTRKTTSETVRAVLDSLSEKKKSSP", "procedure": "as §1"}},
  "note": "Residue numbers refer to the chain shown, from its start. Names and notes keep the numbering of the source.",
  "data": [
    {"binder": "B1", "values": [
      {"measurement": "activity", "setting": "B2M 13-14x.281", "value": 53.6, "unit": "% B2M-negative"},
      {"measurement": "activity", "setting": "B2M 13-14x.377", "value": 75.9, "unit": "% B2M-negative"},
      {"measurement": "activity", "setting": "B2M 13-14x.465", "value": 30.8, "unit": "% B2M-negative"},
      {"measurement": "activity", "setting": "B2M 13-14x.371", "value": 22.6, "unit": "% B2M-negative"},
      {"measurement": "activity", "setting": "B2M 13-14x.317", "value": 3.91, "unit": "% B2M-negative"},
      {"measurement": "activity", "setting": "B2M 13-14x.456", "value": 15.7, "unit": "% B2M-negative"},
      {"measurement": "activity", "setting": "B2M 13-14x.457", "value": 19.7, "unit": "% B2M-negative"}
    ]}
  ]
}
